Data on one molecule can be found in patent publication US5981483.

One may read the Kd as the equilibrium constant for the complex coming apart. Broadly, the koff is the rate constant with which the complex falls apart. By kon is commonly meant the rate constant with which the complex forms.

Where “and” joins values, the source holds several entries; their conditions need not be identical. Identical values can stand only once.

Assay [1] addresses BMP-6. As to the kind of experiment: SPR (BIAcore); analyte over immobilized cytokine; repeated calculation.
Assay [2] deals with TGF-β2. Described as above.
In assay [3] the target is BMP-4. The description is as above.
Assay [4] deals with purified human TGF-β1 (human) (UniProt P01137).
Sequence of purified human TGF-β1 (human) (P01137 279-390 limits assumed): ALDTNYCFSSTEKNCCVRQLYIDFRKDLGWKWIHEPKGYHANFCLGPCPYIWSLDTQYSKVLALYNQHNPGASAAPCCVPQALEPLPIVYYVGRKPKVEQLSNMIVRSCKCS
Assay [5] addresses TGF-β in dexamethasone-treated rat bone marrow cultures (rat).
Assay [6] addresses purified human TGF-β1 (human) (UniProt P01137). This is another data set of the same source.
For assay [7] the target is unchanged. The source holds these as a separate data set.
Assay [8] concerns the target active TGF-β produced by Mv1Lu cells (mink).
The target of assay [9] is T1, recombinant human BMP-2 (human) (UniProt P12643).
T1 sequence: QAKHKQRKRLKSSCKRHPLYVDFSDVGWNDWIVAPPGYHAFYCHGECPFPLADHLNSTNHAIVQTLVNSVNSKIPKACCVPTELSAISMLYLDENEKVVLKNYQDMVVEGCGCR

The target of assay [10] is BMP-6. As to the kind of experiment: SPR (BIAcore); analyte over immobilized cytokine.
Sequence of BMP-6 (P22004 375-513): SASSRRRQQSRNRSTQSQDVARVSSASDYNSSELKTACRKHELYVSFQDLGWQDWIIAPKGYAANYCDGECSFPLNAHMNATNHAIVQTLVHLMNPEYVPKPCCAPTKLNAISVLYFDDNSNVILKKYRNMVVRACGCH
Assay [11] addresses TGF-β2. Nature of the assay: SPR (BIAcore); analyte over immobilized cytokine.
In assay [12] the target is BMP-4. As to the kind of experiment: SPR (BIAcore); analyte over immobilized cytokine. In general terms: In SPR one partner is held on a chip, and binding of the other changes the refractive index at the surface.

B1: bovine fetuin (protein)
chain: IPLDPVAGYKEPACDDPDTEQAALAAVDYINKHLPRGYKHTLNQIDSVKVWPRRPTGEVYDIEIDTLETTCHVLDPTPLANCSVRQQTQHAVEGDCDIHVLKQDGQFSVLFTKCDSSPDSAEDVRKLCPDCPLLAPLNDSRVVHAVEVALATFNAESNGSYLQLVEISRAQFVPLPVSVSVEFAVAATDCIAKEVVDPTKCNLLAEKQYGFCKGSVIQKALGGEDVRVTCTLFQTQPVIPQPQPDGAEAEAPSAVPDAAGPTPSAAGPPVASVVVGPSVVAVPLPLHRAHYDLRHTFSGVASVESSSGEAFHVGKTPIVGQPSIPGGPVRLCPGRIRYFKI
B1: the Kd in the assay with BMP-6 [1] was 710 nM; in the assay with TGF-β2 [2] it was 4400 nM; with BMP-4 [3], 120 nM; with BMP-6 [10], 860 nM; with BMP-4 [12], 140 nM. The koff in the assay with BMP-6 [1] was 0.0021 s⁻¹; in the assay with TGF-β2 [2] it was 0.0024 s⁻¹; in the assay with BMP-4 [3], 0.00051 s⁻¹; with BMP-6 [10] it was 0.0025 s⁻¹; with TGF-β2 [11] it was 0.0032 s⁻¹; with BMP-4 [12], 0.00058 s⁻¹. Besides, the kon with BMP-6 [1] is 2900 M⁻¹ s⁻¹; with TGF-β2 [2], 550 M⁻¹ s⁻¹; with BMP-4 [3], 4200 M⁻¹ s⁻¹; with BMP-6 [10], 2900 M⁻¹ s⁻¹; with TGF-β2 [11], 550 M⁻¹ s⁻¹; with BMP-4 [12], 4200 M⁻¹ s⁻¹. The molecule further yielded an IC50, inhibition of the anti-proliferative activity of TGF-β1 (12 pM) on Mv1Lu cells in [4] of 4.2e-06 M. In assay [5], the IC50, inhibition of calcium-deposition was found to be 10000 nM. Also, in assay [6], the percent neutralization of the antiproliferative activity of TGF-β1 (3H-thymidine incorporation, Mv1Lu cells) stood at 150%. In assay [7], this molecule yielded an IC50, block of the anti-proliferative activity of exogenously added TGF-β1 (18 pM) on Mv1Lu cells (FIG. 12) of 3e-06 M. The molecule also showed a proliferation of Mv1Lu cells without added cytokine (3H-thymidine incorporation) in assay [8] of 8 pM. Besides, the IC50, reversal of BMP-2 inhibition of Mv1Lu cell growth in assay [9] is 2000 nM and 5000 nM.
